This note sets out measurements from the supplement of paper PMC10567573.

The labels stand for the following.
B1: ZNF193 (parent)
chain: QKRYHCKECGKVFSQSAGLIQHQR
B2: GLTSCR2 (parent)
chain: YNPSFEDHQTLLSAAHEVELQRQK
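Note: lentivirally expressed fusions sorted by FACS into six bins by GFP to DsRed ratio, PSI derived from sequencing read proportions per bin multiplied by bin number.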

Variants of B1 are the subject of the first data set. As to the kind of experiment: protein stability index of a GFP-peptide fusion (GPS, HEK-293T) (PSI 1-6); higher = more stable. The settings on record: c terminus: a fixed tail appended.
Regarding QSRYHCKECGKVFSQSAGLIQHQR [K2S], the protein stability index was determined as 2.48.
QWRYHCKECGKVFSQSAGLIQHQR [K2W]: the protein stability index was found to be 2.17.
Take QERYHCKECGKVFSQSAGLIQHQR [K2E]: the protein stability index worked out at 3.08.
In the case of QMRYHCKECGKVFSQSAGLIQHQR [K2M], the protein stability index worked out at 3.1.
On the same count and under the same terms, under QDRYHCKECGKVFSQSAGLIQHQR [K2D] stands 3.31.
Still for that read-out and setting: under QYRYHCKECGKVFSQSAGLIQHQR [K2Y] stands 2.6; under QTRYHCKECGKVFSQSAGLIQHQR [K2T], 2.24.
Take QGRYHCKECGKVFSQSAGLIQHQR [K2G]: the protein stability index amounted to 3.31.
On the same count and under the same terms, with QVRYHCKECGKVFSQSAGLIQHQR [K2V] the figure was 2.58.
Regarding QCRYHCKECGKVFSQSAGLIQHQR [K2C], the protein stability index amounted to 2.39.
The same measure, in the same setting: with QIRYHCKECGKVFSQSAGLIQHQR [K2I] the figure was 2.81; with QLRYHCKECGKVFSQSAGLIQHQR [K2L], 2.81.
For the variant QNRYHCKECGKVFSQSAGLIQHQR [K2N], the protein stability index came out at 2.86.
On the same count and under the same terms, with QARYHCKECGKVFSQSAGLIQHQR [K2A] the figure was 2.85; with QHRYHCKECGKVFSQSAGLIQHQR [K2H], 3.06.
Still for that read-out and setting: under QRRYHCKECGKVFSQSAGLIQHQR [K2R] stands 2.76; under QFRYHCKECGKVFSQSAGLIQHQR [K2F], 2.31; under QPRYHCKECGKVFSQSAGLIQHQR [K2P], 3.07.
QQRYHCKECGKVFSQSAGLIQHQR [K2Q]: the protein stability index was determined as 3.04.
Still for that read-out and setting: under QKGYHCKECGKVFSQSAGLIQHQR [R3G] stands 2.93; under QKEYHCKECGKVFSQSAGLIQHQR [R3E], 3.26.
Same read-out and setting: with QKAYHCKECGKVFSQSAGLIQHQR [R3A] the figure was 3.18; with QKKYHCKECGKVFSQSAGLIQHQR [R3K], 3.23; with QKHYHCKECGKVFSQSAGLIQHQR [R3H], 2.92.
On the same count and under the same terms, with QKDYHCKECGKVFSQSAGLIQHQR [R3D] the figure was 2.35; with QKCYHCKECGKVFSQSAGLIQHQR [R3C], 3.48.
In the case of QKIYHCKECGKVFSQSAGLIQHQR [R3I], the protein stability index came to 3.55.
Still for that read-out and setting: under QKFYHCKECGKVFSQSAGLIQHQR [R3F] stands 3.6; under EKRYHCKECGKVFSQSAGLIQHQR [Q1E], 3.7.
TKRYHCKECGKVFSQSAGLIQHQR [Q1T]: the protein stability index came out at 2.98.
On to AKRYHCKECGKVFSQSAGLIQHQR [Q1A], for which the protein stability index was 2.67.
Still for that read-out and setting: with PKRYHCKECGKVFSQSAGLIQHQR [Q1P] the figure was 3.16; with HKRYHCKECGKVFSQSAGLIQHQR [Q1H], 2.73; with GKRYHCKECGKVFSQSAGLIQHQR [Q1G], 2.81.
In the case of FKRYHCKECGKVFSQSAGLIQHQR [Q1F], the protein stability index was determined as 2.45.
Take LKRYHCKECGKVFSQSAGLIQHQR [Q1L]: the protein stability index is 2.62.
In the case of VKRYHCKECGKVFSQSAGLIQHQR [Q1V], the protein stability index was determined as 3.05.
Still for that read-out and setting: with WKRYHCKECGKVFSQSAGLIQHQR [Q1W] the figure was 1.9; with KKRYHCKECGKVFSQSAGLIQHQR [Q1K], 3.1; with MKRYHCKECGKVFSQSAGLIQHQR [Q1M], 2.45.
On the same count and under the same terms, under NKRYHCKECGKVFSQSAGLIQHQR [Q1N] stands 2.32.
Same read-out and setting: under RKRYHCKECGKVFSQSAGLIQHQR [Q1R] stands 3.19; under SKRYHCKECGKVFSQSAGLIQHQR [Q1S], 2.88.
IKRYHCKECGKVFSQSAGLIQHQR [Q1I]: the protein stability index was found to be 3.03.
On the same count and under the same terms, with CKRYHCKECGKVFSQSAGLIQHQR [Q1C] the figure was 2.42; with DKRYHCKECGKVFSQSAGLIQHQR [Q1D], 3.71.
On the same count and under the same terms, under YKRYHCKECGKVFSQSAGLIQHQR [Q1Y] stands 2.2.

Another data set covers variants of B2. The data set is described as above. The conditions noted are these: c terminus: a fixed tail appended.
As for YNPSFEDHITLLSAAHEVELQRQK [Q9I], the protein stability index stood at 2.6.
With YNPSFEDHHTLLSAAHEVELQRQK [Q9H], the protein stability index amounted to 3.68.
For the variant YNPSFEDHTTLLSAAHEVELQRQK [Q9T], the protein stability index stood at 3.56.
As for YNPSFEDHQTLLSAAHEVELNRQK [Q21N], the protein stability index turned out to be 3.71.
As to YNPSFEDHQTLLSAAHEVELIRQK [Q21I], the protein stability index is 3.26.
Consider YNPSFEDHQTLLSAAHEVELERQK [Q21E], for which the protein stability index is 3.42.
Turning to YNPSFEDHQTLLSAAHEVELQGQK [R22G], the protein stability index was found to be 3.86.
The same measure, in the same setting: under YNPSFEDHQTLLSAAHEVELQFQK [R22F] stands 3.43; under YNPSFEDHQTLLSAAHECELQRQK [V18C], 3.65.
Same read-out and setting: with YNPSFEDQQTLLSAAHEVELQRQK [H8Q] the figure was 3.84.
Still for that read-out and setting: under YNPSFEDHQTLKSAAHEVELQRQK [L12K] stands 4.45; under YNPSFEDHQTLNSAAHEVELQRQK [L12N], 4.54; under YNPSFEDHQTLLSAAHEVELQRQQ [K24Q], 3.81.
For the variant YNPSFEDHQTLLSAAHEVELQRQA [K24A], the protein stability index worked out at 3.39.
As to YNPSFEAHQTLLSAAHEVELQRQK [D7A], the protein stability index came out at 3.72.
In the case of YNPSFEHHQTLLSAAHEVELQRQK [D7H], the protein stability index came out at 3.67.
With YNPSFENHQTLLSAAHEVELQRQK [D7N], the protein stability index worked out at 3.98.
In the case of YNPSFESHQTLLSAAHEVELQRQK [D7S], the protein stability index is 4.11.
YNPEFEDHQTLLSAAHEVELQRQK [S4E]: the protein stability index came to 4.72.
Regarding YNPQFEDHQTLLSAAHEVELQRQK [S4Q], the protein stability index is 4.28.
Still for that read-out and setting: with YNPFFEDHQTLLSAAHEVELQRQK [S4F] the figure was 4; with YNPWFEDHQTLLSAAHEVELQRQK [S4W], 3.67; with YNPSFEDHQTLLSARHEVELQRQK [A15R], 3.56.
On the same count and under the same terms, under YNPSFEDHQTLLSAEHEVELQRQK [A15E] stands 4.53; under YNPSFEDHQTLLSALHEVELQRQK [A15L], 2; under YNPSFEDHQTLLSAHHEVELQRQK [A15H], 3.56.
On the same count and under the same terms, under YGPSFEDHQTLLSAAHEVELQRQK [N2G] stands 4.39.
Take YNPSFEDHQTHLSAAHEVELQRQK [L11H]: the protein stability index stood at 4.57.
The same measure, in the same setting: under YNPSFEDHQTDLSAAHEVELQRQK [L11D] stands 5.01; under YNPSFEDHQYLLSAAHEVELQRQK [T10Y], 3.03.
On the same count and under the same terms, with YNPSFEDHQRLLSAAHEVELQRQK [T10R] the figure was 2.59; with YNPSFEDHQHLLSAAHEVELQRQK [T10H], 3.37; with YNPSFEDHQELLSAAHEVELQRQK [T10E], 4.44.
In the case of YNRSFEDHQTLLSAAHEVELQRQK [P3R], the protein stability index was 3.85.
Same read-out and setting: under YNPSSEDHQTLLSAAHEVELQRQK [F5S] stands 3.88; under YNPSMEDHQTLLSAAHEVELQRQK [F5M], 3.5; under YNPSAEDHQTLLSAAHEVELQRQK [F5A], 4.22.
For the variant YNPSFEDHQTLLSAAHAVELQRQK [E17A], the protein stability index was 3.15.
As for YNPSFEDHQTLLSAAHLVELQRQK [E17L], the protein stability index came out at 2.96.
On the same count and under the same terms, under YNPSFEDHQTLLSAAHRVELQRQK [E17R] stands 3.4; under YNPSFEDHQTLLSAAHHVELQRQK [E17H], 2.78.
On the same count and under the same terms, under YNPSFEDHQTLLSLAHEVELQRQK [A14L] stands 3.09; under YNPSFEDHQTLLSDAHEVELQRQK [A14D], 4.29; under YNPSFEDHQTLLSAAHEVEFQRQK [L20F], 3.57.
Still for that read-out and setting: under YNPSFADHQTLLSAAHEVELQRQK [E6A] stands 3.1; under YNPSFWDHQTLLSAAHEVELQRQK [E6W], 2.75; under YNPSFYDHQTLLSAAHEVELQRQK [E6Y], 2.67.
